Experimental findings from US20200024322A1 (Eli Lilly, published 2020) are described below.

Numbered stars: 1 amine (or outer) side, 2 acyl side, 3 side chain; on linkers, the order of the positions; unused ones are H or OH. Square brackets hold non-standard residues; d marks the D form. Side chains are listed from the residue outwards. Ends that are not written are not given here. * marks the point of attachment. C20 diacid = O=C(O)CCCCCCCCCCCCCCCCCCC(=O)*; γGlu = O=C(O)[C@H](CCC(=O)[*:2])N[*:1]; AEEA = NCCOCCOCC(=O)O; Aib = CC(C)(N)C(=O)O

One may read the Ki as the equilibrium dissociation constant of an inhibitor or competing ligand from its target.

Sequences and labels used below:
B1: Example 42 (peptide)
peptide: Y[Aib]EGTFTSDYSILLDKIAQ[Aib]AFIEYLIEGGPSK([AEEA-AEEA-γGlu-C20 diacid])GAPPPS-NH2
modifications: N-terminus assumed
SMILES: CC[C@H](C)[C@H](NC(=O)[C@H](CCCCN)NC(=O)[C@H](CC(=O)O)NC(=O)[C@H](CC(C)C)NC(=O)[C@H](CC(C)C)NC(=O)[C@@H](NC(=O)[C@H](CO)NC(=O)[C@H](Cc1ccc(O)cc1)NC(=O)[C@H](CC(=O)O)NC(=O)[C@H](CO)NC(=O)[C@@H](NC(=O)[C@H](Cc1ccccc1)NC(=O)[C@@H](NC(=O)CNC(=O)[C@H](CCC(=O)O)NC(=O)C(C)(C)NC(=O)[C@@H](N)Cc1ccc(O)cc1)[C@@H](C)O)[C@@H](C)O)[C@@H](C)CC)C(=O)N[C@@H](C)C(=O)N[C@@H](CCC(N)=O)C(=O)NC(C)(C)C(=O)N[C@@H](C)C(=O)N[C@@H](Cc1ccccc1)C(=O)N[C@H](C(=O)N[C@@H](CCC(=O)O)C(=O)N[C@@H](Cc1ccc(O)cc1)C(=O)N[C@@H](CC(C)C)C(=O)N[C@H](C(=O)N[C@@H](CCC(=O)O)C(=O)NCC(=O)NCC(=O)N1CCC[C@H]1C(=O)N[C@@H](CO)C(=O)N[C@@H](CCCCNC(=O)COCCOCCNC(=O)COCCOCCNC(=O)CC[C@H](NC(=O)CCCCCCCCCCCCCCCCCCC(=O)O)C(=O)O)C(=O)NCC(=O)N[C@@H](C)C(=O)N1CCC[C@H]1C(=O)N1CCC[C@H]1C(=O)N1CCC[C@H]1C(=O)N[C@@H](CO)C(N)=O)[C@@H](C)CC)[C@@H](C)CC
B2: Example 46 (peptide)
peptide: Y[Aib]EGTFTSDYSILLDKIAQ[Aib]AFIEYLIEGGPSSGAPK([AEEA-AEEA-γGlu-C20 diacid])PS-NH2
modifications: N-terminus assumed
SMILES: CC[C@H](C)[C@H](NC(=O)[C@H](CCCCN)NC(=O)[C@H](CC(=O)O)NC(=O)[C@H](CC(C)C)NC(=O)[C@H](CC(C)C)NC(=O)[C@@H](NC(=O)[C@H](CO)NC(=O)[C@H](Cc1ccc(O)cc1)NC(=O)[C@H](CC(=O)O)NC(=O)[C@H](CO)NC(=O)[C@@H](NC(=O)[C@H](Cc1ccccc1)NC(=O)[C@@H](NC(=O)CNC(=O)[C@H](CCC(=O)O)NC(=O)C(C)(C)NC(=O)[C@@H](N)Cc1ccc(O)cc1)[C@@H](C)O)[C@@H](C)O)[C@@H](C)CC)C(=O)N[C@@H](C)C(=O)N[C@@H](CCC(N)=O)C(=O)NC(C)(C)C(=O)N[C@@H](C)C(=O)N[C@@H](Cc1ccccc1)C(=O)N[C@H](C(=O)N[C@@H](CCC(=O)O)C(=O)N[C@@H](Cc1ccc(O)cc1)C(=O)N[C@@H](CC(C)C)C(=O)N[C@H](C(=O)N[C@@H](CCC(=O)O)C(=O)NCC(=O)NCC(=O)N1CCC[C@H]1C(=O)N[C@@H](CO)C(=O)N[C@@H](CO)C(=O)NCC(=O)N[C@@H](C)C(=O)N1CCC[C@H]1C(=O)N[C@@H](CCCCNC(=O)COCCOCCNC(=O)COCCOCCNC(=O)CC[C@H](NC(=O)CCCCCCCCCCCCCCCCCCC(=O)O)C(=O)O)C(=O)N1CCC[C@H]1C(=O)N[C@@H](CO)C(N)=O)[C@@H](C)CC)[C@@H](C)CC
B3: Example 43 (peptide)
peptide: Y[Aib]EGTFTSDYSILLDKIAQ[Aib]AFIEYLIEGGPSSK([AEEA-AEEA-γGlu-C20 diacid])APPPS-NH2
modifications: N-terminus assumed
SMILES: CC[C@H](C)[C@H](NC(=O)[C@H](CCCCN)NC(=O)[C@H](CC(=O)O)NC(=O)[C@H](CC(C)C)NC(=O)[C@H](CC(C)C)NC(=O)[C@@H](NC(=O)[C@H](CO)NC(=O)[C@H](Cc1ccc(O)cc1)NC(=O)[C@H](CC(=O)O)NC(=O)[C@H](CO)NC(=O)[C@@H](NC(=O)[C@H](Cc1ccccc1)NC(=O)[C@@H](NC(=O)CNC(=O)[C@H](CCC(=O)O)NC(=O)C(C)(C)NC(=O)[C@@H](N)Cc1ccc(O)cc1)[C@@H](C)O)[C@@H](C)O)[C@@H](C)CC)C(=O)N[C@@H](C)C(=O)N[C@@H](CCC(N)=O)C(=O)NC(C)(C)C(=O)N[C@@H](C)C(=O)N[C@@H](Cc1ccccc1)C(=O)N[C@H](C(=O)N[C@@H](CCC(=O)O)C(=O)N[C@@H](Cc1ccc(O)cc1)C(=O)N[C@@H](CC(C)C)C(=O)N[C@H](C(=O)N[C@@H](CCC(=O)O)C(=O)NCC(=O)NCC(=O)N1CCC[C@H]1C(=O)N[C@@H](CO)C(=O)N[C@@H](CO)C(=O)N[C@@H](CCCCNC(=O)COCCOCCNC(=O)COCCOCCNC(=O)CC[C@H](NC(=O)CCCCCCCCCCCCCCCCCCC(=O)O)C(=O)O)C(=O)N[C@@H](C)C(=O)N1CCC[C@H]1C(=O)N1CCC[C@H]1C(=O)N1CCC[C@H]1C(=O)N[C@@H](CO)C(N)=O)[C@@H](C)CC)[C@@H](C)CC
B4: Example 44 (peptide)
peptide: Y[Aib]EGTFTSDYSILLDKIAQ[Aib]AFIEYLIEGGPSSGK([AEEA-AEEA-γGlu-C20 diacid])PPPS-NH2
modifications: N-terminus assumed
SMILES: CC[C@H](C)[C@H](NC(=O)[C@H](CCCCN)NC(=O)[C@H](CC(=O)O)NC(=O)[C@H](CC(C)C)NC(=O)[C@H](CC(C)C)NC(=O)[C@@H](NC(=O)[C@H](CO)NC(=O)[C@H](Cc1ccc(O)cc1)NC(=O)[C@H](CC(=O)O)NC(=O)[C@H](CO)NC(=O)[C@@H](NC(=O)[C@H](Cc1ccccc1)NC(=O)[C@@H](NC(=O)CNC(=O)[C@H](CCC(=O)O)NC(=O)C(C)(C)NC(=O)[C@@H](N)Cc1ccc(O)cc1)[C@@H](C)O)[C@@H](C)O)[C@@H](C)CC)C(=O)N[C@@H](C)C(=O)N[C@@H](CCC(N)=O)C(=O)NC(C)(C)C(=O)N[C@@H](C)C(=O)N[C@@H](Cc1ccccc1)C(=O)N[C@H](C(=O)N[C@@H](CCC(=O)O)C(=O)N[C@@H](Cc1ccc(O)cc1)C(=O)N[C@@H](CC(C)C)C(=O)N[C@H](C(=O)N[C@@H](CCC(=O)O)C(=O)NCC(=O)NCC(=O)N1CCC[C@H]1C(=O)N[C@@H](CO)C(=O)N[C@@H](CO)C(=O)NCC(=O)N[C@@H](CCCCNC(=O)COCCOCCNC(=O)COCCOCCNC(=O)CC[C@H](NC(=O)CCCCCCCCCCCCCCCCCCC(=O)O)C(=O)O)C(=O)N1CCC[C@H]1C(=O)N1CCC[C@H]1C(=O)N1CCC[C@H]1C(=O)N[C@@H](CO)C(N)=O)[C@@H](C)CC)[C@@H](C)CC
B5: Example 45 (peptide)
peptide: Y[Aib]EGTFTSDYSILLDKIAQ[Aib]AFIEYLIEGGPSSGAK([AEEA-AEEA-γGlu-C20 diacid])PPS-NH2
modifications: N-terminus assumed
SMILES: CC[C@H](C)[C@H](NC(=O)[C@H](CCCCN)NC(=O)[C@H](CC(=O)O)NC(=O)[C@H](CC(C)C)NC(=O)[C@H](CC(C)C)NC(=O)[C@@H](NC(=O)[C@H](CO)NC(=O)[C@H](Cc1ccc(O)cc1)NC(=O)[C@H](CC(=O)O)NC(=O)[C@H](CO)NC(=O)[C@@H](NC(=O)[C@H](Cc1ccccc1)NC(=O)[C@@H](NC(=O)CNC(=O)[C@H](CCC(=O)O)NC(=O)C(C)(C)NC(=O)[C@@H](N)Cc1ccc(O)cc1)[C@@H](C)O)[C@@H](C)O)[C@@H](C)CC)C(=O)N[C@@H](C)C(=O)N[C@@H](CCC(N)=O)C(=O)NC(C)(C)C(=O)N[C@@H](C)C(=O)N[C@@H](Cc1ccccc1)C(=O)N[C@H](C(=O)N[C@@H](CCC(=O)O)C(=O)N[C@@H](Cc1ccc(O)cc1)C(=O)N[C@@H](CC(C)C)C(=O)N[C@H](C(=O)N[C@@H](CCC(=O)O)C(=O)NCC(=O)NCC(=O)N1CCC[C@H]1C(=O)N[C@@H](CO)C(=O)N[C@@H](CO)C(=O)NCC(=O)N[C@@H](C)C(=O)N[C@@H](CCCCNC(=O)COCCOCCNC(=O)COCCOCCNC(=O)CC[C@H](NC(=O)CCCCCCCCCCCCCCCCCCC(=O)O)C(=O)O)C(=O)N1CCC[C@H]1C(=O)N1CCC[C@H]1C(=O)N[C@@H](CO)C(N)=O)[C@@H](C)CC)[C@@H](C)CC

One assay has as its target T1, human GLP-1 receptor (human, UniProt P43220 24-463).
T1 construct: whole, on cells; Used as crude membranes of stably transfected HEK293 cells; also called hGLP1R; hGLP-1R
Nature of the assay: SPA, [125I]-GLP-1 displacement, hGLP-1R membranes.
With B1, affinity was put at a Ki of 13.2 nM. In other words, the double-digit nanomolar range.

Turning to B2, affinity was put at a Ki of 13.4 nM.

The molecule B3 gave a Ki of 11.8 nM.

B4: affinity was put at a Ki of 10.6 nM.

In turn, B5 showed an inhibition constant (Ki) of 5.65 nM.

The target of a further assay is T2, human glucagon receptor (human, UniProt P47871 26-477).
T2 construct: whole, on cells; Used as crude membranes of stably transfected HEK293 cells; also called hGcgR; hGLcgR
T2 sequence (P47871 26-477): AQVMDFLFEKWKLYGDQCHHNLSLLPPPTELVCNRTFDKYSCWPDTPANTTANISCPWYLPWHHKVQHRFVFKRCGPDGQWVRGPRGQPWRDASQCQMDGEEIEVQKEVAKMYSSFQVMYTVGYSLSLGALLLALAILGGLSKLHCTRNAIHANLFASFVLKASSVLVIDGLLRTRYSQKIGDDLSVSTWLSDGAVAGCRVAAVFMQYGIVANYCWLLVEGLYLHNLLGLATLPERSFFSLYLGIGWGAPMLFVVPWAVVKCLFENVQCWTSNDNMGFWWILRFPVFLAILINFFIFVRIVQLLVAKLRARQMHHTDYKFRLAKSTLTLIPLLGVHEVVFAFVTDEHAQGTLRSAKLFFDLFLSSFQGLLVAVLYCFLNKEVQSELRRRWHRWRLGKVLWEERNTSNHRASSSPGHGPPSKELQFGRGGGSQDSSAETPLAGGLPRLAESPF
Nature of the assay: SPA, [125I]-Gcg displacement, hGcgR membranes.
Molecule B1 gave an inhibition constant Ki of 160 nM. This lies in the sub-micromolar range.

B2 showed a Ki of 133 nM.

In turn, B3 yielded a Ki of 134 nM. The Ki values of the last two molecules are within 1.5-fold of each other.

Turning to B4, the affinity corresponds to a Ki of 121 nM.

The molecule B5 returned a Ki of 11.1 nM.

The target in the next assay is T3, human GIP receptor (human, UniProt P48546 22-466).
T3 construct: whole, on cells; Used as crude membranes of stably transfected CHO cells; also called hGIPR
T3 sequence (looked up): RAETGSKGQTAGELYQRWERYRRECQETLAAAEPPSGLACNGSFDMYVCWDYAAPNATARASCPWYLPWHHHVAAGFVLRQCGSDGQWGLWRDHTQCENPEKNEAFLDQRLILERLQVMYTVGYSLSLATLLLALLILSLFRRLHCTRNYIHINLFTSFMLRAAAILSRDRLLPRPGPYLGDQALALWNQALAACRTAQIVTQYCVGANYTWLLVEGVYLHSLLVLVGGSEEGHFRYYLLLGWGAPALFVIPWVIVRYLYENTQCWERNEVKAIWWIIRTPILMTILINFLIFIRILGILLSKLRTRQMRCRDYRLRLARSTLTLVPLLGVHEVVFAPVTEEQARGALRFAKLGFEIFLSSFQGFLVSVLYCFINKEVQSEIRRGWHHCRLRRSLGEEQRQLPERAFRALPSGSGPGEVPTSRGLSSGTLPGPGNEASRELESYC
Briefly: SPA, [125I]-GIP displacement, hGIPR membranes.
For B1, the inhibition constant (Ki) came out at 0.0514 nM.

B2 yielded an inhibition constant Ki of 0.0852 nM.

In the case of B3, the Ki came out at 0.101 nM.

The molecule B4 displayed a Ki of 0.0516 nM. This Ki is about 2-fold lower than that of the molecule before.

In turn, B5 yielded an inhibition constant (Ki) of 0.0463 nM.
